Assay results reported in article PMC7788559.

Biological target: MRN (MRE11-RAD50-NBS1) wild type (Homo sapiens, UniProt P49959;Q92878;O60934 1-708;1-1312;1-754)
Assay: pull-down, immunoblot

MRN (MRE11-RAD50-NBS1) wild type, sequence (P49959 whole entry, chain 1 of 3): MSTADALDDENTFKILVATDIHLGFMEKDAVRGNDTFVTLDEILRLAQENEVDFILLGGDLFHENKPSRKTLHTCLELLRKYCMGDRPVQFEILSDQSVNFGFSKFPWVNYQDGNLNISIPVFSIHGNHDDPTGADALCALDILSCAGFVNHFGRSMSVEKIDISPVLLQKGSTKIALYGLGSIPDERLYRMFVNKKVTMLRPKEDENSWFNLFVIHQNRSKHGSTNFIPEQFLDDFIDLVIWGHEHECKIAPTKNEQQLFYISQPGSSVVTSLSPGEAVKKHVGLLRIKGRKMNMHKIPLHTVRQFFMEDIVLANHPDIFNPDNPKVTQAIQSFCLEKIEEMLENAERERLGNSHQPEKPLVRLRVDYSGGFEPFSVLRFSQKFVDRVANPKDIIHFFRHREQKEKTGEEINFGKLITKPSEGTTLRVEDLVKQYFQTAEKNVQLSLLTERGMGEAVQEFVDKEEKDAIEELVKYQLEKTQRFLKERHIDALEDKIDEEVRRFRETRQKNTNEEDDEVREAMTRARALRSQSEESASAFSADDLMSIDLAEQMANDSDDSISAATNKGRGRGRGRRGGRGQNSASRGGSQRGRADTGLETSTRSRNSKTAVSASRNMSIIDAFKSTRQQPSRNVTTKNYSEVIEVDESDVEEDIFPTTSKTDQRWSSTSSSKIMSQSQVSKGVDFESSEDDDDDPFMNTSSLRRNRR
MRN (MRE11-RAD50-NBS1) wild type, sequence (Q92878 whole entry, chain 2 of 3): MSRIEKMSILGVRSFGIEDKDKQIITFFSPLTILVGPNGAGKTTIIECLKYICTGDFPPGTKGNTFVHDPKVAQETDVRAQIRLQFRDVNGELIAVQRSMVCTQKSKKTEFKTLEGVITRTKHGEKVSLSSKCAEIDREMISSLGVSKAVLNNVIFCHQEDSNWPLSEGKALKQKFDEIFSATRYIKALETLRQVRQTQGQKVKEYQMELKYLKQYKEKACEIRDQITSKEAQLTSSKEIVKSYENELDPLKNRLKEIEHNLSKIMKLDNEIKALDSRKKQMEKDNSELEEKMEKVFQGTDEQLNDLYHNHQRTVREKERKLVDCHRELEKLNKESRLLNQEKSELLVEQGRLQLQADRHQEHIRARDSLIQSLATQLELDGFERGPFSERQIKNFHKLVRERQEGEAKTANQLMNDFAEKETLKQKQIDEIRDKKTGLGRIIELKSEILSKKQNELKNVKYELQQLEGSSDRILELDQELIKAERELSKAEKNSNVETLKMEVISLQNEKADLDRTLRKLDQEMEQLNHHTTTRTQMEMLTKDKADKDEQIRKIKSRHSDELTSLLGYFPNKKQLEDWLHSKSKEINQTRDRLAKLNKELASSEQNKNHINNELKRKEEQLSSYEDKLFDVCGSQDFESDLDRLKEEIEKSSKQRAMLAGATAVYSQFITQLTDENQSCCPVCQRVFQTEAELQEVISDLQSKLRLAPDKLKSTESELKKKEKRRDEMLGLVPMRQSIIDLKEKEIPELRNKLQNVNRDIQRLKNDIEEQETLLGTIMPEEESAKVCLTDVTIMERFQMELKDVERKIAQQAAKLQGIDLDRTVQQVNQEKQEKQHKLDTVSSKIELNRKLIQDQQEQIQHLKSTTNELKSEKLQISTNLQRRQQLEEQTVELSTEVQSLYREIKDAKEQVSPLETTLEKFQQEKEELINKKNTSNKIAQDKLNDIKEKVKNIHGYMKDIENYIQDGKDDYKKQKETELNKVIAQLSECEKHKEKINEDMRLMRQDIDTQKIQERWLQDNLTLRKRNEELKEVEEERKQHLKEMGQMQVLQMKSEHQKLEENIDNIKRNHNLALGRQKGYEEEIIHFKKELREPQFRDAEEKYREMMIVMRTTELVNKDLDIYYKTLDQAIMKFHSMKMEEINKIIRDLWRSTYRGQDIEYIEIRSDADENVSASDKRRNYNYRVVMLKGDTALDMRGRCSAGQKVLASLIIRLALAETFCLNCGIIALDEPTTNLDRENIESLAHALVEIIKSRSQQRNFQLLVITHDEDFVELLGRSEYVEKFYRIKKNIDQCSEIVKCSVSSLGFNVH
MRN (MRE11-RAD50-NBS1) wild type, sequence (O60934 whole entry, chain 3 of 3): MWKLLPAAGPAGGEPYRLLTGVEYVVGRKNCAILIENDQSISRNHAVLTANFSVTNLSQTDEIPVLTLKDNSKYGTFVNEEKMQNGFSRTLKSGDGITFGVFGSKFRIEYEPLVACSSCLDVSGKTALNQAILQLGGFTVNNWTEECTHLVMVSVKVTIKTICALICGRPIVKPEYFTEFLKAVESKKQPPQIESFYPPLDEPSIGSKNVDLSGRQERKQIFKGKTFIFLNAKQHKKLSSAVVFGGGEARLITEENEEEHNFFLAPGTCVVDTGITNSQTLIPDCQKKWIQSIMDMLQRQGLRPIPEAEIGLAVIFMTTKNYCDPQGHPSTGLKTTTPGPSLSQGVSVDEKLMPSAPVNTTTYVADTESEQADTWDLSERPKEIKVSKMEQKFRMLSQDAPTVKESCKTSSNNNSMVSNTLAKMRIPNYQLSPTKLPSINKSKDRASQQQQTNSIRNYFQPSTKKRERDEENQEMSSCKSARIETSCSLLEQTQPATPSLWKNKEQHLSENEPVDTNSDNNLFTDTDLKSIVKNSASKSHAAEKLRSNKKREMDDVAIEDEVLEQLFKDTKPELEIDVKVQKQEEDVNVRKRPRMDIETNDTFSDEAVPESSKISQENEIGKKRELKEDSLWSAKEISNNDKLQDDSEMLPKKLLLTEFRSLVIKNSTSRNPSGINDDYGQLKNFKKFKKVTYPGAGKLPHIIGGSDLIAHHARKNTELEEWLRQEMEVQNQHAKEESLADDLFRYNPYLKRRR

B1: Sj60mer blunt dsDNA (dsDNA)
DNA 1: TTGTAAAACGACGGCCAGTGAATTCATCATCAATAATATACCTTATTTTGGGATCTATGC
DNA 2: GCATAGATCCCAAAATAAGGTATATTATTGATGATGAATTCACTGGCCGTCGTTTTACAA
binding result: binds
